Reference: patent publication US6713294B1, “DNA glycosylases and their use” (priority 1996, dated 2004)

Tests used:
[1] = tested on: ^3H-uracil released in uracil-DNA glycosylase assays; test: Uracil-DNA glycosylase activity after coupled transcription/translation in rabbit reticulocyte lysates; format: biochemical
Protocol: In vitro transcription/translation was performed with the TNT® transcription/translation system with […] as recommended by the manufacturer, using 200 ng of the expression constructs per 10 μl reaction volume. The mouse UNG1-pBluescript® construct was transcribed from the T3 promoter in the pBluescript® vector. The insert of mouse UNG2-pBluescript® was amplified by the polymerase chain reaction using Dynazyme® PCR kit, ligated into the pGEM-T vector and transcribed from the T7 promoter. […] Human UNG1 CDNA was transcribed from the T7 promoter as previously described (Slupphaug et al., 1995, Biochemistry, 34, p128-138). The samples were run on a 12% denaturing sodium dodecyl sulfate polyacrylamide gel (SDS-PAGE). The gel was dried, autoradiographed overnight and scanned on an LKB Ultroscan XL Enhanced Laser Densitometer. Uracil-DNA glycosylase activity was measured in parallel samples of the in vitro transcription/translation assay mixture containing unlabelled amino acids (Slupphaug et al., 1995, supra). A construct containing both promoters (pGL2-ProAB) linked to the luciferase gene was prepared by insertion of a PvuII/MluI fragment (the enzymes cleave in positions 418 and 1035, respectively) from the promoter region of the UNG gene into the SmaI-MluI sites of pGL2-ProB. […]

3-methyladenine = settings: Roy et al. (1994); cited from earlier work
7-methylguanine = settings: Roy et al. (1994); cited from earlier work
[2] = tested on: imidazole ring-opened form of 7-methylguanine-DNA substrate; settings: Boiteux et al. (1990); cited from earlier work
3-methyladenine-DNA = settings: Bjelland et al. (1994); cited from earlier work

For mouse UNG2: mouse homolog of human UNG2, the “dpm (^3H-uracil released)” value ([1]; after subtraction of background of 123 dpm) was 856 dpm and the “Activity (dpm/area), relative specific activity” value ([1]; translation in rabbit reticulocyte lysates) was 16784 dpm/area.

B1: N-methylpurine-DNA glycosylase: recombinant N-methylpurine-DNA glycosylase from mouse (protein, UniProt Q04841 1-333, looked up)
DNA-3-methyladenine …: MPARGGSARPGRGALKPVSVTLLPDTEQPPFLGRARRPGNARAGSLVTGYHEVGQMPAPLSRKIGQKKQRLADSEQQQTPKERLLSTPGLRRSIYFSSPEDHSGRLGPEFFDQPAVTLARAFLGQVLVRRLADGTELRGRIVETEAYLGPEDEAAHSRGGRQTPRNRGMFMKPGTLYVYLIYGMYFCLNVSSQGAGACVLLRALEPLEGLETMRQLRNSLRKSTVGRSLKDRELCSGPSKLCQALAIDKSFDQRDLAQDDAVWLEHGPLESSSPAVVVAAARIGIGHAGEWTQKPLRFYVQGSPWVSVVDRVAEQMDQPQQTACSEGLLIVQK
For B1, the “Kcat for excision of 3-methyladenine” value (3-methyladenine) is given as 0.013 s⁻¹ and the Kcat for excision of 7-methylguanine (7-methylguanine) is given as 0.00333 s⁻¹.

B2: FPG protein: formamido-pyrimidine-DNA glycosylase (protein, UniProt P05523 2-269, looked up)
Formamidopyrimidine-DNA …: PELPEVETSRRGIEPHLVGATILHAVVRNGRLRWPVSEEIYRLSDQPVLSVQRRAKYLLLELPEGWIIIHLGMSGSLRILPEELPPEKHDHVDLVMSNGKVLRYTDPRRFGAWLWTKELEGHNVLTHLGPEPLSDDFNGEYLHQKCAKKKTAIKPWLMDNKLVVGVGNIYASESLFAAGIHPDRLASSLSLAECELLARVIKAVLLRSIEQGGTTLKDFLQSDGKPGYFAQELQVYGRKGEPCRVCGTPIVATKHAQRATFYCRQCQK
In the case of B2, the “Kcat on imidazole ring-opened form of 7-methylguanine-DNA” value [2] is listed as 0.0233 s⁻¹.

B3: AlkA: Escherichia coli inducible 3-methyladenine-DNA glycosylase II (protein, UniProt P04395 1-282, looked up)
DNA-3-methyladenine …: MYTLNWQPPYDWSWMLGFLAARAVSSVETVADSYYARSLAVGEYRGVVTAIPDIARHTLHINLSAGLEPVAAECLAKMSRLFDLQCNPQIVNGALGRLGAARPGLRLPGCVDAFEQGVRAILGQLVSVAMAAKLTARVAQLYGERLDDFPEYICFPTPQRLAAADPQALKALGMPLKRAEALIHLANAALEGTLPMTIPGDVEQAMKTLQTFPGIGRWTANYFALRGWQAKDVFLPDDYLIKQRFPGMTPAQIRRYAERWKPWRSYALLHIWYTEGWQPDEA
In the case of B3, the “Turnover number on 3-methyladenine-DNA” value (3-methyladenine-DNA) is listed as 0.03 min⁻¹.
